Key:
[1] = target: T1, Ala mutant SEQ ID NO: 27 (human); assay: ELISA, peptide on plate (10 ug/mL)
T1 sequence (peptide): AENMDDQWMQDEMEIGY

[2] = target: T2, Ala mutant SEQ ID NO: 28 (human); assay: ELISA, peptide on plate (10 ug/mL)
T2 sequence (peptide): EANMDDQWMQDEMEIGY

[3] = target: T3, Ala mutant SEQ ID NO: 29 (human); assay: ELISA, peptide on plate (10 ug/mL)
T3 sequence (peptide): EEAMDDQWMQDEMEIGY

[4] = target: T4, Ala mutant SEQ ID NO: 30 (human); assay: ELISA, peptide on plate (10 ug/mL)
T4 sequence (peptide): EENADDQWMQDEMEIGY

[5] = target: T5, Ala mutant SEQ ID NO: 31 (human); assay: ELISA, peptide on plate (10 ug/mL)
T5 sequence (peptide): EENMADQWMQDEMEIGY

[6] = target: T6, Ala mutant SEQ ID NO: 32 (human); assay: ELISA, peptide on plate (10 ug/mL)
T6 sequence (peptide): EENMDAQWMQDEMEIGY

[7] = target: T7, Ala mutant SEQ ID NO: 33 (human); assay: ELISA, peptide on plate (10 ug/mL)
T7 sequence (peptide): EENMDDAWMQDEMEIGY

[8] = target: T8, Ala mutant SEQ ID NO: 36 (human); assay: ELISA, peptide on plate (10 ug/mL)
T8 sequence (peptide): EENMDDQWMADEMEIGY

[9] = target: T9, Ala mutant SEQ ID NO: 37 (human); assay: ELISA, peptide on plate (10 ug/mL)
T9 sequence (peptide): EENMDDQWMQAEMEIGY

[10] = target: T10, Ala mutant SEQ ID NO: 38 (human); assay: ELISA, peptide on plate (10 ug/mL)
T10 sequence (peptide): EENMDDQWMQDAMEIGY

[11] = target: T11, Ala mutant SEQ ID NO: 39 (human); assay: ELISA, peptide on plate (10 ug/mL)
T11 sequence (peptide): EENMDDQWMQDEAEIGY

[12] = target: T12, Ala mutant SEQ ID NO: 40 (human); assay: ELISA, peptide on plate (10 ug/mL)
T12 sequence (peptide): EENMDDQWMQDEMAIGY

[13] = target: T13, Ala mutant SEQ ID NO: 41 (human); assay: ELISA, peptide on plate (10 ug/mL)
T13 sequence (peptide): EENMDDQWMQDEMEAGY

[14] = target: T14, Ala mutant SEQ ID NO: 42 (human); assay: ELISA, peptide on plate (10 ug/mL)
T14 sequence (peptide): EENMDDQWMQDEMEIAY

[15] = target: T15, Ala mutant SEQ ID NO: 43 (human); assay: ELISA, peptide on plate (10 ug/mL)
T15 sequence (peptide): EENMDDQWMQDEMEIGA

[16] = target: T16, Ala mutant having 3-amino acid substitution, SEQ ID NO: 44 (human); assay: ELISA, peptide on plate (10 ug/mL)
T16 sequence (peptide): AAAMDDQWMQDEMEIGY

[17] = target: T17, Ala mutant having 3-amino acid substitution, SEQ ID NO: 47 (human); assay: ELISA, peptide on plate (10 ug/mL)
T17 sequence (peptide): EENMDDQWMAAAMEIGY

[18] = target: T18, Ala mutant having 3-amino acid substitution, SEQ ID NO: 48 (human); assay: ELISA, peptide on plate (10 ug/mL)
T18 sequence (peptide): EENMDDQWMQDEAAAGY

[19] = target: T19, Ala mutant having 3-amino acid substitution, SEQ ID NO: 49 (human); assay: ELISA, peptide on plate (10 ug/mL)
T19 sequence (peptide): EENMDDQWMQDEMEIAA

[20] = target: T20, TA0096 (peptide antigen corresponding to positions 340 to 356 of PAD4) (human); assay: ELISA, peptide on plate (10 ug/mL)
T20 sequence (peptide): EENMDDQWMQDEMEIGY

[21] = target: full-length recombinant mouse PAD4 (mouse) (UniProt Q9Z183); assay: ELISA, mouse PAD4 on plate, antibody 1 ug/mL
Chain of full-length recombinant mouse PAD4 (mouse) (Q9Z183 whole entry): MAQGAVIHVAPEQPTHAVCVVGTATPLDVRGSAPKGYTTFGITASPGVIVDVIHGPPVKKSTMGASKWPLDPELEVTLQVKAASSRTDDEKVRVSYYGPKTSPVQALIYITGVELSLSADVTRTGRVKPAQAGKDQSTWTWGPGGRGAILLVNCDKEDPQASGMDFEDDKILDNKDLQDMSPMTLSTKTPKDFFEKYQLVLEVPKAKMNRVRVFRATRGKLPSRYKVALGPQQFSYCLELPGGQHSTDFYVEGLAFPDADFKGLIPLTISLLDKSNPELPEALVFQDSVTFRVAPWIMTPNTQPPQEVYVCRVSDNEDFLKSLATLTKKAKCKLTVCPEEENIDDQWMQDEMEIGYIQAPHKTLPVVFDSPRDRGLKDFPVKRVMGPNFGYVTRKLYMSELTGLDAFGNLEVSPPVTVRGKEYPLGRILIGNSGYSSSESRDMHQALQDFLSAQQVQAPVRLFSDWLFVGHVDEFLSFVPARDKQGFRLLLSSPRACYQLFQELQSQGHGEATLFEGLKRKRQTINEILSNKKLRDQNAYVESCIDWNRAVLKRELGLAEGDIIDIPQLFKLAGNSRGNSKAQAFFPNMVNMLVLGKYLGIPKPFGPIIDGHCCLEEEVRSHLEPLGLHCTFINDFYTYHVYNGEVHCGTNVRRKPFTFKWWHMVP

[22] = target: full-length recombinant mouse PAD4 (mouse) (UniProt Q9Z183); assay: ELISA, mouse PAD4 on plate, antibody 0.25 ug/mL
[23] = target: full-length recombinant mouse PAD4 (mouse) (UniProt Q9Z183); assay: ELISA, mouse PAD4 on plate, antibody 0.0625 ug/mL
[24] = target: full-length recombinant mouse PAD4 (mouse) (UniProt Q9Z183); assay: ELISA, mouse PAD4 on plate, antibody 0.015625 ug/mL
[25] = target: full-length recombinant mouse PAD4 (mouse) (UniProt Q9Z183); assay: ELISA, mouse PAD4 on plate, antibody 0.0002441 ug/mL
[26] = target: full-length recombinant mouse PAD4 (mouse) (UniProt Q9Z183); assay: ELISA, mouse PAD4 on plate, antibody 0.0009766 ug/mL
[27] = target: full-length recombinant mouse PAD4 (mouse) (UniProt Q9Z183); assay: ELISA, mouse PAD4 on plate, antibody 0.0039063 ug/mL
[28] = target: full-length recombinant mouse PAD4 (mouse) (UniProt Q9Z183); assay: ELISA, mouse PAD4 on plate, antibody 6.104E-05 ug/mL

Row | Binder | absorbance 490 nm/630 nm [1] | absorbance 490 nm/630 nm [2] | absorbance 490 nm/630 nm [3] | absorbance 490 nm/630 nm [4] | absorbance 490 nm/630 nm [5] | absorbance 490 nm/630 nm [7] | absorbance 490 nm/630 nm [8] | absorbance 490 nm/630 nm [9] | absorbance 490 nm/630 nm [10] | absorbance 490 nm/630 nm [11] | absorbance 490 nm/630 nm [12] | absorbance 490 nm/630 nm [13] | absorbance 490 nm/630 nm [14] | absorbance 490 nm/630 nm [15] | absorbance 490 nm/630 nm [16] | absorbance 490 nm/630 nm [17] | absorbance 490 nm/630 nm [18] | absorbance 490 nm/630 nm [19] | absorbance 490 nm/630 nm [20] | absorbance 490 nm/630 nm [21] | further results
1 | A11 (antibody, IgG1, V domains shown) VH: AVTLDESGGGLQTPGGALSLVCKASGFDFSSYGMGWMRQAPGKGLEYVAAIRNDGSWTGYGAAVKGHATISRDNGQSTVRLQLNNLRAEDTGTYYCAKTTGSRGGSIDAWGHGTEVIVS VL: ASTQPSSVSANLGGTVEITCSGGGRYYYGWYQQKSPGSAPVTVIYANDKRPSDIPSRFSGSKSGSTGTLTITGVQAEDEAVYFCGSAETSSYVFGAGTTLTVL | 1.95 OD | 2 OD | 2.05 OD | 2.03 OD | 1.67 OD | 2.09 OD | 1.91 OD | 1.8 OD | 1.89 OD | 1.89 OD | 1.85 OD | 1.85 OD | 1.88 OD | 1.92 OD | 1.98 OD | 1.25 OD | 1.87 OD | 1.89 OD | 1.81 OD | 2.24 OD | absorbance 490 nm/630 nm [6]: 0.628 OD; absorbance 490 nm/630 nm [22]: 2.25 OD; absorbance 490 nm/630 nm [23]: 2.24 OD; absorbance 490 nm/630 nm [24]: 2.02 OD; absorbance 490 nm/630 nm [25]: 0.152 OD; absorbance 490 nm/630 nm [26]: 0.386 OD; absorbance 490 nm/630 nm [27]: 1.07 OD; absorbance 490 nm/630 nm [28]: 0.045 OD
2 | E9 (antibody, IgG1, V domains shown) VH: AVTLDESGGGLQTPGGTLSLVCKGSGFTFSSYGMGWMRQAPGKGLEYVAAIRNDGSWTGYGSAVKGRATISRDNGQSTVRLQLNNLRAEDTATYYCAKTSGSSGGSVDAWGHGTEVIVS VL: ASTQPSSVSANLGGTVEITCSGGGRYYYGWYQQKSPGSAPVTVIYANDKRPSDIPSRFSGSKSGSTGTLTITGVQAEDEAVYFCGSAETSSYVFGAGTTLTVL | 1.89 OD | 2 OD | 1.92 OD | 1.91 OD | 1.38 OD | 1.93 OD | 1.9 OD | 1.2 OD | 1.91 OD | 1.77 OD | 1.82 OD | 1.8 OD | 1.83 OD | 1.88 OD | 1.9 OD | 1.34 OD | 1.81 OD | 1.85 OD | 1.79 OD | 2.23 OD | absorbance 490 nm/630 nm [6]: 0.177 OD; absorbance 490 nm/630 nm [22]: 2.23 OD; absorbance 490 nm/630 nm [23]: 2.19 OD; absorbance 490 nm/630 nm [24]: 1.86 OD; absorbance 490 nm/630 nm [25]: 0.122 OD; absorbance 490 nm/630 nm [26]: 0.416 OD; absorbance 490 nm/630 nm [27]: 0.956 OD; absorbance 490 nm/630 nm [28]: 0.051 OD
3 | G6 (antibody, IgG1, V domains shown) VH: AVTLDESGGGLQTPGGALSLVCKASGFTFSSYGMEWVRQAPGKGLEYVAAIRNDGSWTGYGAAVKGRATISRDDGQSTLRLQLNNLRAEDTATYYCAKTTGSSGGSIDAWGHGTEVIVS VL: ASTQPSSVSANLGETVKITCSGGGNYYYGWYQQKSPGSAPVTLIYANDKRPSNIPSRFSGSKSGSTGTLTITGVQAEDEAVYFCGTADTGKYVFGAGTTLTVL | 1.91 OD | 1.99 OD | 1.95 OD | 1.92 OD | 1.77 OD | 1.98 OD | 1.85 OD | 1.85 OD | 1.92 OD | 1.83 OD | 1.86 OD | 1.87 OD | 1.87 OD | 1.87 OD | 1.92 OD | 1.73 OD | 1.85 OD | 1.88 OD | 1.87 OD | 2.27 OD | absorbance 490 nm/630 nm [22]: 2.27 OD; absorbance 490 nm/630 nm [23]: 2.16 OD; absorbance 490 nm/630 nm [24]: 1.35 OD; absorbance 490 nm/630 nm [25]: 0.071 OD; absorbance 490 nm/630 nm [26]: 0.2 OD; absorbance 490 nm/630 nm [27]: 0.55 OD; absorbance 490 nm/630 nm [28]: 0.044 OD

Source: patent US20230192890A1
